Data on 5 molecules can be found in article PMC11602973, “Structural basis of nucleic acid recognition by the N-terminal cold shock domain of the plant glycine-rich protein AtGRP2”.

For data set [1], the target named is T1, AtGRP2-CSD1-90 WT (Arabidopsis thaliana, UniProt Q41188 1-90).
T1 sequence: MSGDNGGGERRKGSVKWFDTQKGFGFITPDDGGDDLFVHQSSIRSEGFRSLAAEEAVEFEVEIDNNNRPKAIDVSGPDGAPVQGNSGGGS
As to the kind of experiment: fluorescence anisotropy; 20 mM sodium phosphate pH 6.5, 50 mM NaCl, 25 C (fluorescence); NMR titrations in the same buffer plus 250 uM PMSF, 3 mM NaN3, 5% D2O, 298 K. Particulars: protein: recombinant; tags: N-terminal Trx(6 aa)-His6-TEV tag, cleaved; label: 5'-rhodamine.

A further data set deals with T2, AtGRP2-CSD1-79 (Arabidopsis thaliana, UniProt Q41188 1-79).
T2 sequence: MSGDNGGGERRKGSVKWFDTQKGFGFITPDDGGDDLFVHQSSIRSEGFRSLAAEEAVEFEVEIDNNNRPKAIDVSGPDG
The data set is described as follows: intrinsic Trp fluorescence quenching; 20 mM sodium phosphate pH 6.5, 50 mM NaCl, 25 C (fluorescence); NMR titrations in the same buffer plus 250 uM PMSF, 3 mM NaN3, 5% D2O, 298 K. Particulars: protein: recombinant; tags: N-terminal Trx(6 aa)-His6-TEV tag, cleaved.

Data set [2] addresses T1, AtGRP2-CSD1-90 WT. The data set is described as follows: NMR HSQC titration; up to 2x molar excess; 20 mM sodium phosphate pH 6.5, 50 mM NaCl, 25 C (fluorescence); NMR titrations in the same buffer plus 250 uM PMSF, 3 mM NaN3, 5% D2O, 298 K. Particulars: protein: recombinant; tags: N-terminal Trx(6 aa)-His6-TEV tag, cleaved.
A further data set deals with T3, AtGRP2-CSD1-90 F48A (Arabidopsis thaliana, UniProt Q41188 1-90, F48A).
T3 sequence: T1 sequence with F48A
As to the kind of experiment: fluorescence anisotropy; 20 mM sodium phosphate pH 6.5, 50 mM NaCl, 25 C (fluorescence); NMR titrations in the same buffer plus 250 uM PMSF, 3 mM NaN3, 5% D2O, 298 K. Conditions: protein: recombinant; tags: N-terminal Trx(6 aa)-His6-TEV tag, cleaved; label: 5'-rhodamine.

The next data set deals with T4, AtGRP2-CSD1-90 R49A (Arabidopsis thaliana, UniProt Q41188 1-90, R49A).
T4 sequence: T1 sequence with R49A
The data set is described as above. Conditions: protein: recombinant; tags: N-terminal Trx(6 aa)-His6-TEV tag, cleaved; label: 5'-rhodamine.

In another data set the target is T5, AtGRP2-CSD1-90 H39A (Arabidopsis thaliana, UniProt Q41188 1-90, H39A).
T5 sequence: T1 sequence with H39A
The data set is described as above. Particulars: protein: recombinant; tags: N-terminal Trx(6 aa)-His6-TEV tag, cleaved; label: 5'-rhodamine.

A further data set deals with T6, AtGRP2-CSD1-90 W17A (Arabidopsis thaliana, UniProt Q41188 1-90, W17A).
T6 sequence: T1 sequence with W17A
The data set is described as follows: fluorescence anisotropy; no saturation; text: binding abolished; 20 mM sodium phosphate pH 6.5, 50 mM NaCl, 25 C (fluorescence); NMR titrations in the same buffer plus 250 uM PMSF, 3 mM NaN3, 5% D2O, 298 K. Conditions: protein: recombinant; tags: N-terminal Trx(6 aa)-His6-TEV tag, cleaved; label: 5'-rhodamine.

The next data set concerns the target T7, AtGRP2-CSD1-90 F26A (Arabidopsis thaliana, UniProt Q41188 1-90, F26A).
T7 sequence: T1 sequence with F26A
The description is as above. Particulars: protein: recombinant; tags: N-terminal Trx(6 aa)-His6-TEV tag, cleaved; label: 5'-rhodamine.

The target in another data set is T8, AtGRP2-CSD1-90 F37A (Arabidopsis thaliana, UniProt Q41188 1-90, F37A).
T8 sequence: T1 sequence with F37A
The description is as above. Conditions: protein: recombinant; tags: N-terminal Trx(6 aa)-His6-TEV tag, cleaved; label: 5'-rhodamine.

Changes are numbered by the printed parent chain.

B1: Rho-U7 (ssRNA)
RNA: UUUUUUU
For B1, the Kd with AtGRP2-CSD1-90 WT [1] was determined as 76.8 ± 9.7 µM.

B2: T7 (ssDNA)
DNA: TTTTTTT
With B2, in the data set with AtGRP2-CSD1-79, the Kd is 22 ± 2.4 µM.

B3: G7 (ssDNA)
DNA: GGGGGGG
B3: the binding result with AtGRP2-CSD1-90 WT [2] was “no binding”.

B4: Rho-T7 (ssDNA)
DNA: TTTTTTT
Regarding B4, the Kd with AtGRP2-CSD1-90 WT [1] came to 17.2 ± 2.4 µM; in the data set with AtGRP2-CSD1-90 F48A it was 38.6 ± 6.3 µM; with AtGRP2-CSD1-90 R49A it was 45.7 ± 6.8 µM; in the data set with AtGRP2-CSD1-90 H39A, 210 ± 36.8 µM. Further, the binding result with AtGRP2-CSD1-90 W17A, with AtGRP2-CSD1-90 F26A and with AtGRP2-CSD1-90 F37A was “no binding” throughout.

B5: A7 (ssDNA)
DNA: AAAAAAA
With B5, the binding result in the data set with AtGRP2-CSD1-90 WT [2] is given as “no binding”.

One may read the Kd as the constant that tells how readily two partners part at equilibrium.
